Measured values reported in US20240010721A1 (HARBOUR BIOMED SHANGHAI, published 2024).
Changes are numbered by the printed parent chain.

B1: PR001416 (antibody, human IgG1, kappa, V domains shown)
VH: QVQLVESGGGVVQPGRSLRLSCAASGFTFSTYGMHWVRQAPGKGLEWVAVIWYDGSDKDYADSVKGRFTISRDTSKNTLYLQMNSLRAEDTAVYYCAREQARSFDLWGRGTLVTVSS
VL: DIVMTQSPSTLSASVGDRVTITCRASQTINNWLAWYQQKPGKAPKLLIYKASSLESGVPSRFSGSGSGTEFTLTISSLQPDDFATYYCQQYNSYSPMYTFGQGTKVEIKR
notes: fully human IgG1, kappa
B2: PR001419 (antibody, V domains shown)
VH: B1 VH with T31S, V50I, S56I, D57S, D59N, T74M, K76N, L79V, R98K
VL: not shown
notes: fully human IgG1, kappa
B3: PR001418 (antibody, human IgG1, kappa, V domains shown)
VH: B1 VH with T31S
VL: B1 VL with V106L
notes: fully human IgG1, kappa
B4: PR001364 (antibody, human IgG1, kappa, V domains shown)
VH: B1 VH with Q1E, V5L, T31S, Y32F
VL: B1 VL
notes: fully human IgG1, kappa; also called anti-ROR1 1015M3-D8 hIgG1; PR001364(WT)
B5: PR001359 (antibody, human IgG1, kappa, V domains shown)
VH: B1 VH with I51T
VL: B1 VL with T28S, I29V, N92K
notes: fully human IgG1, kappa
B6: PR001355 (antibody, human IgG1, kappa, V domains shown)
VH: B1 VH with E6Q, V11L, R16G, T31S, D57N, A97V
VL: B1 VL with V3Q, T10S, I29M, F83S, V106L
notes: fully human IgG1, kappa
B7: PR001415 (antibody, human IgG1, kappa, V domains shown)
VH: B1 VH with Q1E, T31N, Y32S, V50I, I51M, D57N
VL: B1 VL
notes: fully human IgG1, kappa
B8: PR001417 (antibody, V domains shown)
VH: B1 VH with T28S, T31S, G33A, K43R, S56G, K58E, A61I, T74D
VL: B1 VL with I2V, T28S, N31S
notes: fully human IgG1, kappa
B9: PR001369 (antibody, human IgG1, kappa, V domains shown)
VH: B1 VH with T31N, M34I, V50I, I51M, D57N, K58T, Y80F
VL: B1 VL
notes: fully human IgG1, kappa; also called anti-ROR1 1015M3-H10 hIgG1; PR001369(WT)

biological target: T1, human ROR1 (hROR1) on cells (human, UniProt Q01973 30-937); assay: FACS, HEK293T-hROR1 cells
T1 construct: whole, on cells; the cell line is named under assay; also called HEK293T-hROR1; 293T-hROR1
T1 sequence (Q01973 30-937): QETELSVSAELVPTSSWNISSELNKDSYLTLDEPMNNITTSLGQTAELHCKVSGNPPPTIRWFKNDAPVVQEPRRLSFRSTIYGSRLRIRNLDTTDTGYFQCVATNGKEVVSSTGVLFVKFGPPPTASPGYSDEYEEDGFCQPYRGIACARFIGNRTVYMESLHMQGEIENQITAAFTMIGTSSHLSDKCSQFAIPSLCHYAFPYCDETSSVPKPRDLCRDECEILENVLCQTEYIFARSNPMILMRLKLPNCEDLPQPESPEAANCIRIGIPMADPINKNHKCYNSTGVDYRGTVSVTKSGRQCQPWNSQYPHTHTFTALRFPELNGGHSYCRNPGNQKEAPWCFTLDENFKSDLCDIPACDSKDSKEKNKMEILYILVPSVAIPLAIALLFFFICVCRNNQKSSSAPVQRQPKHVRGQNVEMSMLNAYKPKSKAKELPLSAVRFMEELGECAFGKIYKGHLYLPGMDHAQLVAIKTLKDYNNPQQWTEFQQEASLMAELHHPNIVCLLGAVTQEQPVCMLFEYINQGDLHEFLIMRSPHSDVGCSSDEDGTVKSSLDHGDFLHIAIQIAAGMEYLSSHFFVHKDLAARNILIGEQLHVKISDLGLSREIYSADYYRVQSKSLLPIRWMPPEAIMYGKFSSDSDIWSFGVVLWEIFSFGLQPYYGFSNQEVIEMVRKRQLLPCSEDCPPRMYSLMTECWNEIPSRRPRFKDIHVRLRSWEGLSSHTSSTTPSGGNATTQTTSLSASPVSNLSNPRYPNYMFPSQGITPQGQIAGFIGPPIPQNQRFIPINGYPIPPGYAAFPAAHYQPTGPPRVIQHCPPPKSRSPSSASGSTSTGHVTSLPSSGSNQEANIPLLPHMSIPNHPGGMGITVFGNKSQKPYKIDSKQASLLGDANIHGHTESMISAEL
Description: (§1) The binding properties were characterized by FACS. The recombinant antibodies obtained above were serially diluted to 9 different concentrations and incubated for 1 h, and then determined for the binding ability with HEK293T-hROR1, CHO-K1-cynoROR1 and A549 cell lines (endogenously expressing ROR1), respectively. The secondary antibody was then incubated for 1 h. The results are shown in FIG. 4-6 and Table 7-2 below.

Binder	fold lower EC50 than reference PR000374 [fold]
B1	10
B2	10
B3	10
B4	10
B5	10
B6	10
B7	10
B8	10
B9	10

biological target: T1, human ROR1 (hROR1) on cells; assay: FACS, A549 cells
Description: as §1

Binder	MAX(MFI)
B4	3960
B5	3930
B6	4240
B9	3890

biological target: T1, human ROR1 (hROR1) on cells; assay: FACS, Panc-1 cells

Binder	MFI [MFI]
B4	4960
B9	6230

biological target: T1, human ROR1 (hROR1) on cells; assay: flow cytometry (FACS) on HEK293T-hROR1 cells, antibody 0.01-100 nM, median fluorescence intensity
Description: as §1

Binder	EC50 (read off the curve) [nM]
B1	~2
B2	~3
B3	~3
B7	~3
B8	~3

biological target: T2, ROR1 (antigen of the KD determination and of the Octet dissociation measurement) (UniProt Q01973 30-403, limits assumed); assay: method not stated (conventional procedures)
T2 sequence (Q01973 30-403 limits assumed): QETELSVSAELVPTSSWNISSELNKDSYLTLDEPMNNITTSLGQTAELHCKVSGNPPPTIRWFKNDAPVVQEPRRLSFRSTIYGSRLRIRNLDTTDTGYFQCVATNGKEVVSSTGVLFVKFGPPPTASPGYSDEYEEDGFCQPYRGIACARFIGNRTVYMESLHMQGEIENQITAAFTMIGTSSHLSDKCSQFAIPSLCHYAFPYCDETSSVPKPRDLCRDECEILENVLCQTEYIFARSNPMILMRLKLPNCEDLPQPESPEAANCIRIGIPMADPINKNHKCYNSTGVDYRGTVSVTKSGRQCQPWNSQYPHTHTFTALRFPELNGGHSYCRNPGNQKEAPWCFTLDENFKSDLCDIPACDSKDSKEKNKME

Binder	Kd [nM]	koff [s⁻¹]	kon [M⁻¹ s⁻¹]
B1	1.27	0.000342	270000
B2	3.01	0.00117	389000
B3	1.45	0.000423	292000
B4	1.2	0.000376	314000
B5	2	0.000637	320000
B6	0.839	0.000291	347000
B7	1.53	0.000512	336000
B8	14.9	0.00646	433000
B9	1.69	0.000519	307000

biological target: T1, human ROR1 (hROR1) on cells; assay: FACS, HEK293T-hROR1 cells; remark: another data set of the same source

Binder	MFI [MFI]
B4	43100
B9	43800

biological target: T3, cynomolgus ROR1 (cynoROR1) on CHO-K1 cells (cynomolgus, UniProt A0A2K5WTX7 30-937); assay: flow cytometry (FACS) on CHO-K1-cynoROR1 cells, antibody 0.01-100 nM, median fluorescence intensity
T3 construct: whole, on cells; also called CHO-K1-cynoROR1; CHO-K1-cyROR1
Description: as §1

Binder	EC50 (read off the curve) [nM]
B1	~1
B2	~0.7
B3	~1
B7	~0.9
B8	~2

biological target: T4, hROR2ECD-his (human, UniProt Q01974 34-403); assay: ELISA, plate coated with hROR2 ECD-his
T4 construct: extracellular domain; bought, Acrobiosystems R02-H52E5; also called huROR2-his
T4 sequence (Q01974 34-403): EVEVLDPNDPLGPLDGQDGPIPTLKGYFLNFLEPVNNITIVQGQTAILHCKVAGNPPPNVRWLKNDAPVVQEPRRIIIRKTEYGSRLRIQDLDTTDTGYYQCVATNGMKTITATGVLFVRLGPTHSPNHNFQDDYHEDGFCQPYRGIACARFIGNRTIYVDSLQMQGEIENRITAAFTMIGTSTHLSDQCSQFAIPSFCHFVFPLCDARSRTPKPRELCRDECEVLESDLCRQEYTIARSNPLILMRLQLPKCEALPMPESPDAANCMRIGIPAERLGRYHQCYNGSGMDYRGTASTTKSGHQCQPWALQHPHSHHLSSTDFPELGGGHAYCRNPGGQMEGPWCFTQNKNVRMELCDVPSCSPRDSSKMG
Description: (§2) Screening by ELISA assay: 96-well plates (Corning 9018) were coated with 1 μg/mL hROR1 ECD-his/hROR2 ECD-his/mROR1 ECD-his proteins prepared with PBS in Example 1a above and incubated at 4° C. overnight. The liquid was then discarded, and the plates were washed 3 times with PBST, blocked with 5% milk for 2 h at room temperature, and washed 3 times with PBST. The taken supernatant was added at 100 μL/well, and the plates were incubated at room temperature for 1 h, followed by washing 3 times with PBST. 100 μL/well of secondary antibody (Sigma, Cat#: A8592) was added, the plates were incubated at room temperature for 1 h, and then washed. TMB was then added to the plates at 100 μL/well and incubated for 15 min at room temperature. Thereafter, the reaction was terminated and data were read.
(§3) a. Results of ELISA assay (the ELISA assay was performed according to the same procedures as in Example 2c, except that the added samples were recombinant antibodies and the secondary antibody was a-Fc (Genscript, Cat#: A01854))

Binder	ELISA signal (called MFI)
B1	0.0265
B2	0.025
B3	0.042
B4	0.024
B5	0.038
B6	0.0285
B7	0.03
B8	0.027
B9	0.031

biological target: T1, human ROR1 (hROR1) on cells; assay: FACS, HEK293T-hROR1 cells; cytometer saturated
Description: as §1

Binder	MAX(MFI)
B4	262000
B5	262000
B6	262000
B9	262000

biological target: T5, Human ROR1-ECD-his (human, UniProt Q01973 30-406); assay: ELISA, plate coated with hROR1 ECD-his
T5 construct: extracellular domain; bought, Acrobiosystems RO1-H522y; also called hROR1-ECD-his; hROR1 ECD-his
T5 sequence (Q01973 30-406): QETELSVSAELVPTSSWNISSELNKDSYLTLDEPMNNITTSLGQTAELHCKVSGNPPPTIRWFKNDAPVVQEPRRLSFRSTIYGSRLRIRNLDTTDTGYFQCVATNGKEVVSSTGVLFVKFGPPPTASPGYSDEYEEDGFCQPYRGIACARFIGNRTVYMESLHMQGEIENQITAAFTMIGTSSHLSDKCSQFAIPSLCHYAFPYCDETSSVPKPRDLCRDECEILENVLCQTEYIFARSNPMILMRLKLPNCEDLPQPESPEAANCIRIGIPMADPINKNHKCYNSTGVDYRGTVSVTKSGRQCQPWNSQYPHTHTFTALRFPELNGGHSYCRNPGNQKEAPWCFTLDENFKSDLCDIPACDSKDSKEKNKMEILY
Description: as §2, §3

Binder	ELISA signal (called MFI)
B1	2.45
B2	2.44
B3	2.42
B4	2.38
B5	2.39
B6	2.54
B7	2.61
B8	2.38
B9	2.48

biological target: T1, human ROR1 (hROR1) on cells; assay: cell-based or functional assay

Binder	ADCC Cytotoxicity (%), Donor 1, 1 nM [%]	ADCC Cytotoxicity (%), Donor 1, 10 nM [%]	ADCC Cytotoxicity (%), Donor 2, 1 nM [%]	ADCC Cytotoxicity (%), Donor 2, 10 nM [%]
B5	33.7	39.5	21.9	26.1
B6	25.7	29	14.1	14.2

biological target: T3, cynomolgus ROR1 (cynoROR1) on CHO-K1 …; assay: FACS, CHO-K1-cynoROR1 cells
Description: as §1

Binder	MAX(MFI)
B4	18200
B5	27200
B6	30000
B9	22200

biological target: T2, ROR1 (antigen of the KD determination …); assay: Octet, antigen form not stated

Binder	Response	koff [s⁻¹]
B4	0.601	9.38e-05
B9	0.288	0.00498

biological target: T4, hROR2ECD-his; assay: ELISA, plate coated with hROR2 ECD-his; remark: another data set of the same source
Description: as §2, §3
The corresponding values in the table are the measured median fluorescence intensity (MFI).

Binder	binding result
B1	no binding
B2	no binding
B3	no binding
B4	no binding
B5	no binding
B6	no binding
B7	no binding
B8	no binding
B9	no binding

biological target: T1, human ROR1 (hROR1) on cells; assay: flow cytometry (FACS) on A549 cells (endogenous ROR1), antibody 0.01-100 nM, median fluorescence intensity
Description: as §1

Binder	EC50 (read off the curve) [nM]
B1	~0.4
B2	~0.2
B3	~0.4
B7	~0.4
B8	~0.9
